Data reported in PMC9950535, “Divalent metal cofactors differentially modulate RadA-mediated strand invasion and exchange in Saccharolobus solfataricus” (Bioscience Reports, 2023).
Each block holds one molecule with its values, some of them ahead of it.

What was measured:
SsoRadA [1] = molecular target: T1, SsoRadA (Saccharolobus solfataricus, UniProt Q55075); experiment: filter binding
T1 construct: gene radA
T1 sequence (Q55075 1-324): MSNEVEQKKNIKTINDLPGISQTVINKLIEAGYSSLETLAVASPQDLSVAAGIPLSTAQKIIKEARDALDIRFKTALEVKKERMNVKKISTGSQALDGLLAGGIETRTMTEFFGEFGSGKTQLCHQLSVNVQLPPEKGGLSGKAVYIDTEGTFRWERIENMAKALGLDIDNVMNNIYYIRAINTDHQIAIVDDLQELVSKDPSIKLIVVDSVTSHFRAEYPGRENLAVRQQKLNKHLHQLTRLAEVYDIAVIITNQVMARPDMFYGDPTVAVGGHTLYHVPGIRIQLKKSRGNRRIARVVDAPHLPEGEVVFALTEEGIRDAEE

SsoRadA [2] = molecular target: T1, SsoRadA; experiment: TLC ATPase assay, [γ-32P]ATP; assay type: biochemical
[3] = substrate: Nc1ncnc2c1ncn2[C@@H]1O[C@H](COP(=O)(O)OP(=O)(O)OP(=O)(O)O)[C@@H](O)[C@H]1O; experiment: TLC ATPase assay, initial rates; assay type: biochemical, Saccharolobus solfataricus; conditions: 10 mM Mg2+, 20 μM (nucleotides) φX174 ssDNA, 0.5 μM SsoRadA, 25 mM Tris acetate pH 7.5, 65°C
SsoRadA [4] = molecular target: T2, SsoRadA (Saccharolobus solfataricus, UniProt Q55075 1-324); experiment: filter binding; 10 mM Mn2+, no ATP; Filter binding: 40 mM HEPES pH 7.0, 50 mM KCl, 10 mM CaCl2, MgCl2 or MnCl2, 20 pmol SsoRadA, 3 uM ATP where included, ssDNA varied; temperature not stated; conditions: protein: recombinant; single strand
T2 sequence: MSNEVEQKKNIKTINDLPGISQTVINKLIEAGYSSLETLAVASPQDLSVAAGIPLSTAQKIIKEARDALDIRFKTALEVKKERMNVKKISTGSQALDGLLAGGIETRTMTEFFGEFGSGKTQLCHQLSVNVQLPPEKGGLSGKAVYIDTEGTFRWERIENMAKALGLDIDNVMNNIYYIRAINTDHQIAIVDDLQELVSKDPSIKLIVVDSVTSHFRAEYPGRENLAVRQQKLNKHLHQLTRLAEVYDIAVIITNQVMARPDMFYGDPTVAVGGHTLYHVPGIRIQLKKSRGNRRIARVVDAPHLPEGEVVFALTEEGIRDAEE

SsoRadA [5] = molecular target: T2, SsoRadA; experiment: filter binding; 10 mM Mn2+, 3 uM ATP; Filter binding: 40 mM HEPES pH 7.0, 50 mM KCl, 10 mM CaCl2, MgCl2 or MnCl2, 20 pmol SsoRadA, 3 uM ATP where included, ssDNA varied; temperature not stated; conditions: protein: recombinant; single strand
SsoRadA [6] = molecular target: T2, SsoRadA; experiment: filter binding; 10 mM Mg2+, 3 uM ATP; Filter binding: 40 mM HEPES pH 7.0, 50 mM KCl, 10 mM CaCl2, MgCl2 or MnCl2, 20 pmol SsoRadA, 3 uM ATP where included, ssDNA varied; temperature not stated; conditions: protein: recombinant; single strand

Kd (SsoRadA [1]): 1130 ± 440 nM
Molecule: Nc1ncnc2c1ncn2[C@@H]1O[C@H](COP(=O)(O)OP(=O)(O)OP(=O)(O)O)[C@@H](O)[C@H]1O [ATP]

Molecule: Nc1ncnc2c1ncn2[C@@H]1O[C@H](CO[P@](=O)(O)O[P@](=O)(O)O[P@@](=O)(O)S)[C@@H](O)[C@H]1O [ATPγS]
IC50 (SsoRadA [2]): 87800 nM

IC50 (SsoRadA [2]): 112000 nM
Molecule: Nc1ncnc2c1ncn2[C@@H]1O[C@H](COP(=O)(O)OP(=O)(O)O)[C@@H](O)[C@H]1O [ADP]

B1: SsoRadA (Saccharolobus solfataricus P2) (protein)
chain: MSNEVEQKKNIKTINDLPGISQTVINKLIEAGYSSLETLAVASPQDLSVAAGIPLSTAQKIIKEARDALDIRFKTALEVKKERMNVKKISTGSQALDGLLAGGIETRTMTEFFGEFGSGKTQLCHQLSVNVQLPPEKGGLSGKAVYIDTEGTFRWERIENMAKALGLDIDNVMNNIYYIRAINTDHQIAIVDDLQELVSKDPSIKLIVVDSVTSHFRAEYPGRENLAVRQQKLNKHLHQLTRLAEVYDIAVIITNQVMARPDMFYGDPTVAVGGHTLYHVPGIRIQLKKSRGNRRIARVVDAPHLPEGEVVFALTEEGIRDAEE
Km [3]: 2.3 ± 0.47 µM
kcat [3]: 0.0283 ± 0.0015 s⁻¹

B2: 63-mer oligonucleotide (ssDNA)
DNA: ACAGCACCAATGAAATCTATTAAGCTCCTCATCGTCCGCAAAAATATCGTCACCTCAAAAGGA
Kd (SsoRadA [4]): 82.4 ± 13.2 nM
Kd (SsoRadA [5]): 23.1 ± 14.4 nM
Kd (SsoRadA [6]): 21.3 ± 1.6 nM
